Results: patent publication US20240389562

Columns and labels:
Assay in all cases: cell_activity
[1] = system: XTN TALEN 1 right monomer; details: Cel-1 assay, value for the pair
[2] = system: XTN TALEN 2 right monomer; details: Cel-1 assay, value for the pair; most active
[3] = system: XTN TALEN 3 right monomer; details: Cel-1 assay, value for the pair
XTN TALEN 1 left monomer = details: Cel-1 assay, value for the pair
XTN TALEN 2 left monomer = details: Cel-1 assay, value for the pair; most active
XTN TALEN 3 left monomer = details: Cel-1 assay, value for the pair

Sequence: AGTGCAGGGAGCCACA (double strand) [TALEN 1 right half-site]
- activity [1]: 5%

Sequence: TTCCTAAGTGCAGGGA (double strand) [TALEN 2 right half-site]
- activity [2]: 9%

Sequence: GTCATTGAGCAAATGCA (double strand) [TALEN 3 right half-site]
- activity [3]: 3%

Sequence: TATGCGGACCTTTATCTA (double strand) [TALEN 1 left half-site]
- activity (XTN TALEN 1 left monomer): 5%

Sequence: TGCAGTATGCGGACCTT (double strand) [TALEN 2 left half-site]
- activity (XTN TALEN 2 left monomer): 9%

Sequence: TCTGCCAACCTCACAT (double strand) [TALEN 3 left half-site]
- activity (XTN TALEN 3 left monomer): 3%
